Reference: patent US20230011916A1 (BEIGENE, published 2023)

T1: full-length human OX40 expressed on HuT78 cells (HuT78/OX40) (human, UniProt P43489 29-277)
T1 sequence: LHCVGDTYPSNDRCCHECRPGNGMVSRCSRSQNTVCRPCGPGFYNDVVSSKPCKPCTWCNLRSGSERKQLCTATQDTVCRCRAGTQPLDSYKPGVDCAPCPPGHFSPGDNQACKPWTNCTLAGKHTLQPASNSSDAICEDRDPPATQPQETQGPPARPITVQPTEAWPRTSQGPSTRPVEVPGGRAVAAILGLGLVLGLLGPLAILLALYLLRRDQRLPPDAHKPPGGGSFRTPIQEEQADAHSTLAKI

T2: recombinant OX40 protein with a His tag (Cat: 10481-H08H, Sino Biological) (UniProt P43489 29-216)
T2 construct: Bought protein; also called OX40-His (bought); not shown: His tag
T2 sequence (looked up): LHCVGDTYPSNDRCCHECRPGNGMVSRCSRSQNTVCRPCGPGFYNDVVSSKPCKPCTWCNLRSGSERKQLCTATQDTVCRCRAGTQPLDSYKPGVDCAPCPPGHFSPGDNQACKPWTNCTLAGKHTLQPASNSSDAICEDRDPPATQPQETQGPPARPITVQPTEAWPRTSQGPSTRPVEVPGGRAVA

T3: human OX40/IgG1 fusion H153A (human, UniProt P43489 29-216)
T3 construct: not shown: Fc domain of human IgG1 wild type heavy chain
T3 chain: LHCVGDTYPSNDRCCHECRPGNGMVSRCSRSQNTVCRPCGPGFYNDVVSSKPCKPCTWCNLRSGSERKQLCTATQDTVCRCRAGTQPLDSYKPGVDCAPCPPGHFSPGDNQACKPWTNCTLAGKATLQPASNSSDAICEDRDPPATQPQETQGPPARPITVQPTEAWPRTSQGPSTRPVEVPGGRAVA


How the values were obtained:
[1] = molecular target: T1, full-length human OX40 expressed on …; assay: FACS; cells not named on the sheet, HuT78/OX40 cells as in Example 5
[2] = molecular target: T2, recombinant OX40 protein with a His tag …; assay: Biacore (SPR); antigen not named on the sheet, OX40-His as in Example 4
[3] = molecular target: T1, full-length human OX40 expressed on …; assay: FACS; against 445-2
[4] = molecular target: T3, human OX40/IgG1 fusion H153A; assay: SPR, BIAcore 8K, OX40/IgG1 mutant immobilized, 445-3 Fab flowed
Description: Briefly, OX40 mutants and wild type OX40 were immobilized on a CM5 biosensor chip (Cat: BR100530, GE Life Sciences) using EDC and NHS. […] The changes in surface plasmon resonance signals were analyzed to calculate the association rates (ka) and dissociation rates (kd) by using the one-to-one Langmuir binding model (BIA Evaluation Software, GE Life Sciences). The equilibrium dissociation constant (KD) was calculated as the ratio kd/ka. The KD shift fold of mutant was calculated as the ratio Mutant KD/WT KD.

[5] = molecular target: T2, recombinant OX40 protein with a His tag …; assay: Biacore; against 445-2

Binder | EC50 [1] | Top(MFI) [1] | Kd [2] | koff [2] | kon [2] | fold increase to the EC50 over 445-2 [3] | binding result [4] | fold increase to the KD over 445-2 [5]
445-2 with K28T in the heavy chain and S24R in the light chain (antibody, human IgG1, V domains shown) VH: QVQLVQSGAEVKKPGSSVKVSCKASGYTFTSYIIHWVRQAPGQGLEWMGYINPYNEGTRYAQKFQGRVTLTADKSTSTAYMELSSLRSEDTAVYYCARGYYGSSYAMDYWGQGTTVTVSS VL: DIQMTQSPSSLSASVGDRVTITCRASQGISNYLNWYQQKPGKAIKLLIYDASTLYSGVPSRFSGSGSGTDFTLTISSLQPEDFATYYCQQYSKLPYTFGGGTKVEIK | 0.66 µg/mL | 750 MFI | 12.9 nM | 0.00574 s⁻¹ | 444000 M⁻¹ s⁻¹ | 1.7 fold |  | 
445-3 Fab (Fab, V domains shown) VH: QVQLVQSGAEVKKPGSSVKVSCKASGYKFTSYIIHWVRQAPGQGLEWMGYINPYNEGTRYNQKFQGRVTLTADKSTSTAYMELSSLRSEDTAVYYCARGYYGSSYAMDYWGQGTTVTVSS VL: DIQMTQSPSSLSASVGDRVTITCRASQGISNYLNWYQQKPDGAIKLLIYDASTLYSGVPSRFSGSGSGTDFTLTISSLQPEDFATYYCQQYSKLPYTFGGGTKVEIK |  |  |  |  |  |  | no binding | 
445-2 with Y27G in the heavy chain and S24R in the light chain (antibody, human IgG1, V domains shown) VH: QVQLVQSGAEVKKPGSSVKVSCKASGGKFTSYIIHWVRQAPGQGLEWMGYINPYNEGTRYAQKFQGRVTLTADKSTSTAYMELSSLRSEDTAVYYCARGYYGSSYAMDYWGQGTTVTVSS VL: DIQMTQSPSSLSASVGDRVTITCRASQGISNYLNWYQQKPGKAIKLLIYDASTLYSGVPSRFSGSGSGTDFTLTISSLQPEDFATYYCQQYSKLPYTFGGGTKVEIK | 0.755 µg/mL | 630 MFI | 21.5 nM | 0.00135 s⁻¹ | 62500 M⁻¹ s⁻¹ |  |  | 1.7 fold
